Two proteins from PMC3115949 can be followed below.

Substrate in this series: O=P(O)(O)O
Nature of the series: cells, lysate or membranes. Particulars: labelled compound, whole yeast cells, 5 min, 30 °C, glucose-energized, Pi 50-2000 µM, proton symport, pH of Km assay not stated.

B1: GmPT1 (Glycine max) (protein)
chain: MAGGQLGVLNALDVAKTQWYHFTAIVIAGMGFFTDAYDLFCISLVTKLLGRLYYTDIRNPKPGVLPPNVQAAVTGVALCGTLAGQLFFGWLGDKLGRKRVYGLTLMLMVLCSIASGLSFGDTPKGVMATLCFFRFWLDFGIGGDYPLSATIMSEYANKKTRGSFIAAVFAMQGFGIMAGGIVALIVSSAYDHKYDLPSYKDNPAGSKVDSLDYVWRIILMFGAVPAALTYYWRMKMPETARYTALVAKNAKQAASDMSKVLQVEVEAEEDKLQHMVESENQKYGLFSKEFAKRHGLHLVGTTVTWFLLDIAFYSQNLFQKDIFTAIGWIPPAQDMNAIHEVYRIARAQTLIALCSTVPGYWFTVAFIDIIGRFAIQLMGFFFMTVFMFALAIPYNHWKNHNNIGFVVMYSFTFFFSNFGPNATTFVVPAEIFPARLRSTCHGISAAAGKAGAIVGAFGFLYAAQSTNPNKVDHGYPTGIGVKNSLIVLGVINFFGMVFTLLVPESKGKSLEELSGENEDDGAEAIEMAGSARTVPV
By Km is commonly meant the concentration of substrate that gives half-maximal velocity. In the case of B1, the Michaelis constant (Km) was 6.65 mM.

B2: GmPT2 (Glycine max) (protein)
chain: MAGGQLGVLNALDVAKTQWYHFTAIVIAGMGFFTDAYDLFCISLVTKLLGRLYYTDITNPKPGVLPPNVQAAVTGVALCGTLAGQLFFGWLGDKLGRKRVYGLTLMLMVVCSVASGLSFGDTPKGVMATLCFFRFWLGFGIGGDYPLSATIMSEYANKKTRGAFIAAVFAMQGFGILAGGIVALIVSSAYDHKYDLPSYKDNPAGSKVDSLDYVWRIILMFGAVPAGLTYYWRMKMPETARYTALVAKNAKQAASDMSKVLQVEVEAEEDKLQHMVESEHQKYGLFSKEFAKRHGLHLVGTTVTWFLLDIAFYSQNLFQKDIFSAIGWIPPAQDMNAIHEVYRIARAQTLIALCSTVPGYWFTVAFIDIMGRFAIQLMGFFFMTVFMFALAIPYNHWKNHNNIGFVVMYSFTFFFSNFGPNATTFVVPAEIFPARLRSTCHGISAAAGKAGAIVGAFGFLYAAQSTNPDKVDHGYPTGIGVKNSLIVLGVINFFGMVFTLLVPESKGKSLEELSGENEDDGAEAIEMAGSARTVPV
For B2, the Km came out at 6.63 mM.
